Test results: publication PMC9381590, “DDX39B drives colorectal cancer progression by promoting the stability and nuclear translocation of PKM2” (Signal Transduction and Targeted Therapy, 2022)

B1: purified STUB1 (natural protein, UniProt Q9UNE7 1-303, looked up)
chain: MKGKEEKEGGARLGAGGGSPEKSPSAQELKEQGNRLFVGRKYPEAAACYGRAITRNPLVAVYYTNRALCYLKMQQHEQALADCRRALELDGQSVKAHFFLGQCQLEMESYDEAIANLQRAYSLAKEQRLNFGDDIPSALRIAKKKRWNSIEERRIHQESELHSYLSRLIAAERERELEECQRNHEGDEDDSHVRAQQACIEAKHDKYMADMDELFSQVDEKRKKRDIPDYLCGKISFELMREPCITPSGITYDRKDIEEHLQRVGHFDPVTRSPLTQEQLIPNLAMKEVIDAFISENGWVEDY
notes: STIP1 homology and U-box-containing protein 1 (STUB1); the methods tell only of GST- and His-fused proteins from E. coli BL21 (DE3); source: recombinant, purified

Columns and labels:
[1] = target: T1, purified recombinant PKM2 (UniProt P14618 1-531); test: in vitro competitive binding analysis; purified proteins; increasing amounts of DDX39B added to PKM2 (WT or 1-219 aa) and STUB1; western blotting; conditions: both partners purified
T1 construct: pyruvate kinase isoform M2 (PKM2); the methods tell only of GST- and His-fused proteins from E. coli BL21 (DE3); also called PKM2^WT; rPKM2; source: recombinant, purified

purified STUB1 = target: B1; test: as above; conditions: both partners purified

T1 sequence (P14618 whole entry, the tested form may be a part, canonical isoform): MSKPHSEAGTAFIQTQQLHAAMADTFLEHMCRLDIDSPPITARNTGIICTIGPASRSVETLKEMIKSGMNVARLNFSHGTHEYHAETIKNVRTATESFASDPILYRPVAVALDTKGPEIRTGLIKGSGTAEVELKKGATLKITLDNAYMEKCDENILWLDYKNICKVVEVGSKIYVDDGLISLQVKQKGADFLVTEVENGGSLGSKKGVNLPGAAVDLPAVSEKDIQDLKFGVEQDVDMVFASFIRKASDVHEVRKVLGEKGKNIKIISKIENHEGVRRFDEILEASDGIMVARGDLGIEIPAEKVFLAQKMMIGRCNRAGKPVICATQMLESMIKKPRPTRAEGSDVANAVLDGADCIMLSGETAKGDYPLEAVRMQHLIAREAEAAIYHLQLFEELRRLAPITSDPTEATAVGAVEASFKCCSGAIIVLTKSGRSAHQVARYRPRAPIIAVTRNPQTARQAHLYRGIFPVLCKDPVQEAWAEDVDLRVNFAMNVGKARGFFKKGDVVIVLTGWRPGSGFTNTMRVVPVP

Binder: B1
- binding result [1]: binds

B2: purified recombinant PKM2 1-219 aa protein (domain or fragment)
chain: not shown
notes: also called PKM2^1–218,219aa; source: recombinant, purified
- binding result (purified STUB1): binds
